From publication PMC5655547, “A General Strategy for Discovery of Inhibitors and Activators of RING and U-box E3 Ligases with Ubiquitin Variants” (Molecular Cell, 2017)

B1: GST-tagged RING domain of XIAP (XR, residues 434-C) (domain or fragment, UniProt P98170 434-497, looked up)
chain: EISTEEQLRRLQEEKLCKICMDRNIAIVFVPCGHLVTCKQCAEAVDKCPMCYTVITFKQKIFMS
notes: XIAP RING domain, residues 434 to the C terminus; also called GST-XR; HisGST-XR; source: E. coli BL21(λDE3) GOLD, purified (glutathione agarose); not shown: His tag, N-terminal, kept
B2: RING domain of XIAP (XR, residues 434-C), tag removed (domain or fragment, UniProt P98170 434-497, looked up)
chain: B1 chain
notes: XIAP RING domain, residues 434 to the C terminus; dimeric RING in the crystal; not shown: His-GST, N-terminal, cleaved

Tests used:
[1] = biological target: T1, UbcH5B S22R C85K-Ub (stable conjugate) (UniProt P62837 1-147; P0CG48 1-76, S22R | C85K, stably conjugated to Ub (C85K-Ub)); experiment: SPR; Biacore T200, CM-5 chip, 25°C; GST-tagged E3 captured on anti-GST (1,000-2,000 RU); analyte in 25 mM Tris-HCl pH 7.6, 150 mM NaCl, 0.1 mg/ml BSA, 1 mM DTT, 0.005% Tween-20; steady-state affinity; GST alone subtracted; conditions: both partners purified
T1 construct: UbcH5B with S22R and C85K; ubiquitin; mimic of UbcH5B~Ub; also called UbcH5B C85K S22R–Ub; source: made from purified Arabidopsis Uba1, UbcH5B C85K S22R and His-GST-Ub; purified (Ni2+ agarose, TEV cleavage, Source 15S, Superdex 75)

[2] = biological target: the molecule itself; experiment: crystal structure; XR and UbV.XR mixed 1:1.2; sitting drop, 0.1 M NaHEPES pH 7.5, 1.4 M tri-Na citrate; 1.57 Å

Row | Binder | Kd [1] | stoichiometry N [2]
1 | B1 | 12.2 µM | –
2 | B2 | – | 2
